Experimental findings from patent US7179650 (University of Texas, dated 2007) are described below.

The chains are these.
B1: UbCH6 (yeast two-hybrid) (enzyme, human, UniProt P51965 1-193, looked up)
chain: MSDDDSRASTSSSSSSSSNQQTEKETNTPKKKESKVSMSKNSKLLSTSAKRIQKELADITLDPPPNCSAGPKGDNIYEWRSTILGPPGSVYEGGVFFLDITFTPEYPFKPPKVTFRTRIYHCNINSQGVICLDILKDNWSPALTISKVLLSICSLLTDCNPADPLVGSIATQYMTNRAEHDRMARQWTKRYAT
notes: not shown: GAL4 fusion domain of the two-hybrid vector
B2: E2-EPF (yeast two-hybrid) (enzyme, human, UniProt Q16763 1-222, looked up)
chain: MNSNVENLPPHIIRLVYKEVTTLTADPPDGIKVFPNEEDLTDLQVTIEGPEGTPYAGGLFRMKLLLGKDFPASPPKGYFLTKIFHPNVGANGEICVNVLKRDWTAELGIRHVLLTIKCLLIHPNPESALNEEAGRLLLENYEEYAARARLLTEIHGGAGGPSGRAEAGRALASGTEASSTDPGAPGGPGGAEGPMAKKHAGERDKKLAAKKKTDKKRALRRL
notes: as for B1
B3: The N-terminal 23 amino acids of sentrin-1 (yeast two-hybrid) (peptide)
chain: MSDQEAKPSTEDLGDKKQGEYIK
notes: Range worked out from the words: the N-terminal 23 amino acids; also called sentrin-1 (1-23); not shown: GAL4 fusion domain of the two-hybrid vector
B4: sentrin-1 (1-70) (yeast two-hybrid) (other)
chain: MSDQEAKPSTEDLGDKKQGEYIKLKVIGQDSSEIHFKVKMTTHLKKLKESYCQRQGVPMNSLRFLFEGQR
notes: also called deletion of the C-terminal 31 amino acids; not shown: GAL4 fusion domain of the two-hybrid vector
B5: Sentrin-1 with substitution of Ala-Ala for Gly-Gly (yeast two-hybrid) (other)
chain: MSDQEAKPSTEDLGDKKQGEYIKLKVIGQDSSEIHFKVKMTTHLKKLKESYCQRQGVPMNSLRFLFEGQRIADNHTPKELGMEEEDVIEVYQEQTAAHSTV
notes: as for B1
B6: sentrin-1 (24-101) (yeast two-hybrid) (other)
chain: LKVIGQDSSEIHFKVKMTTHLKKLKESYCQRQGVPMNSLRFLFEGQRIADNHTPKELGMEEEDVIEVYQEQTGGHSTV
notes: also called deletion of the N terminal 23 amino acids; not shown: GAL4 fusion domain of the two-hybrid vector

The target in one test is T1, Gal-4-sentrin-1 (pGBT9-sentrin-1, full-length sentrin-1 fused to the GAL4 DNA-binding domain) (human, UniProt P04386 1-147 (Saccharomyces cerevisiae entry)).
T1 construct: also called wild type sentrin-1; sentrin-1 bait
The experiment in a line: yeast two-hybrid.
Turning to B1, the binding result is given as “no binding”. On to B2, for which the binding result was “no binding”.

Another test concerns the target T2, Full-length human Ubc9 in pGAD424 (GAL4 activation domain fusion) (human, UniProt P04386 768-881; P63279 1-158).
T2 construct: also called human ubiquitin conjugating enzyme
The experiment in a line: yeast two-hybrid.
As for B3, the binding result is on record as “no binding”. Take B4: the binding result is “no binding”. On to B5, for which the binding result is recorded as “no binding”. On the same count and under the same terms, with B6 the entry was “binds”.
